# Reference: patent US20220411536A1 (NUMAB THERAPEUTICS, published 2022)
# Residue numbers refer to the chain shown, from its start.
# T1: recombinant human IL-23R (custom-made by Trenzyme) (human, UniProt Q5VWK5 24-355)
# T1 sequence (looked up): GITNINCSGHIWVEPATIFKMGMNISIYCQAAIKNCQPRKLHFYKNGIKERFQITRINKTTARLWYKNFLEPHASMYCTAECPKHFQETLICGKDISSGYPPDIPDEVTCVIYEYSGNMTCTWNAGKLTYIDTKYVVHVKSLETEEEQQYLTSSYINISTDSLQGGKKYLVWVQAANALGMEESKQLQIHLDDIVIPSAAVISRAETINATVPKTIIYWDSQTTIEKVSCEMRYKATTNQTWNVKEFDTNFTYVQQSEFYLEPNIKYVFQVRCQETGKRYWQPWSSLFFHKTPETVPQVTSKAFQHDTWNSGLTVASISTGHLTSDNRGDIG
# B1: PRO1780 (multispecific antibody)
# chain 1: not shown
# chain 2: DIQMTQSPSSLSASVGDRVTITCQASQSISNRLAWYQQKPGKAPKLLIYSASTLASGVPSRFSGSGSGTDFTLTISSLQPEDFATYYCQSTYYGNDGNAFGCGTKVTVLGGGGGSGGGGSGGGGSGGGGSEVQLVESGGGLVQPGGSLRLSCAASGFSFSANYYPCWVRQAPGKCLEWIGCIYGGSSDITYDANWTKGRFTISRDNSKNTVYLQMNSLRAEDTAVYYCARSAWYSGWGGDLWGQGTLVTVSSGGGGSGGGGSQVQLQESGPGLVKPSETLSLTCKVSGFSFSSGYDMCWIRQPPGKGLEWIGCVVAGSVDITYYASWAKGRVTISVDSSKNQFSLKLSSVTAADTAVYYCARKDAYSDAFNLWGQGTLVTVSSGGGSGGGSEVQLVESGGGLVQPGGSLRLSCAASGFSFSSSYWICWVRQAPGKCLEWVGCVFTGDGTTYYASWAKGRFTISRDNSKNTVYLQMNSLRAEDTATYFCARPVSVYYYGMDLWGQGTLVTVSS
# B2: PRO1558 (multispecific antibody)
# chain 1: DIQMTQSPSSLSASVGDRVTITCQASENIYSFLAWYQQKPGKAPKLLIYSASKLAAGVPSRFSGSGSGTDFTLTISSLQPEDFATYYCQQTNRYSNPDIYNVFGTGTKVTVLGGGGGSGGGGSGGGGSGGGGSEVQLVESGGGLVQPGGSLRLSCAASGIDFNSNYYMCWVRQAPGKGLEWIGCIYVGSHVNTYYANWAKGRFTISRDNSKNTVYLQMNSLRAEDTAVYYCATSGSSVLYFKFWGQGTLVTVSSGGGGSGGGGSDVVMTQSPSSLSASVGDRVTITCQASQIISSRSAWYQQKPGQPPKLLIYQASKLASGVPSRFSGSGSGTDFTLTISSLQPEDFATYYCQCTYIDSNFGAFGCGTKLTVLGGGSGGSDIQMTQSPSSLSASVGDRVTITCQSSQSVFSNNYLAWFQQKPGQSPKRLIYSASTLASGVPSRFSGSGSGTDFTLTISSLQPEDFATYYCLGSYACSSADCYVFGTGTKVTVLG
# chain 2: not shown
# B3: PRO1455 (multispecific antibody)
# chain 1: DIQMTQSPSSLSASVGDRVTITCQASENIYSFLAWYQQKPGKAPKLLIYSASKLAAGVPSRFSGSGSGTDFTLTISSLQPEDFATYYCQQTNRYSNPDIYNVFGTGTKVTVLGTVAAPSVFIFPPSDEQLKSGTASVVCLLNNFYPREAKVQWKVDNALQSGNSQESVTEQDSKDSTYSLSSTLTLSKADYEKHKVYACEVTHQGLSSPVTKSFNRGECGGGGSGGGGSDIQMTQSPSSLSASVGDRVTITCQSSQSVFSNNYLAWFQQKPGQSPKRLIYSASTLASGVPSRFSGSGSGTDFTLTISSLQPEDFATYYCLGSYACSSADCYVFGTGTKVTVLGGGGGSGGGGSGGGGSGGGGSEVQLVESGGGLVQPGGSLRLSCAASGFSLSSYDMSWVRQAPGKGLAWIGASYASGPTYYASWAKGRFTISRDNSKNTVYLQMNSLRAEDTATYFCARGGWTGTSHSNIWGQGTLVTVSS
# chain 2: EVQLVESGGGLVQPGGSLRLSCAASGIDFNSNYYMCWVRQAPGKGLEWIGCIYVGSHVNTYYANWAKGRFTISRDNSKNTVYLQMNSLRAEDTAVYYCATSGSSVLYFKFWGQGTLVTVSSASTKGPSVFPLAPSSKSTSGGTAALGCLVKDYFPEPVTVSWNSGALTSGVHTFPAVLQSSGLYSLSSVVTVPSSSLGTQTYICNVNHKPSNTKVDKKVEPKSCGGGGSGGGGSDIQMTQSPSSLSASVGDRVTITCQASQSINDYLAWYQQKPGKAPKLLIYKASTLASGVPSRFSGSGSGTDFTLTISSLQPEDFATYYCQQAYIITDIDNVFGTGTKVTVLGGGGGSGGGGSGGGGSGGGGSQVQLQESGPGLVKPSETLSLTCKVSGFSFSSGYDMCWIRQPPGKGLEWIGCVVAGSVDITYYASWAKGRVTISVDSSKNQFSLKLSSVTAADTAVYYCARKDAYSDAFNLWGQGTLVTVSS
# B4: PRO1498 (multispecific antibody)
# chain 1: B3 chain 1
# chain 2: B3 chain 2 with Q324A
# B5: PRO1778 (multispecific antibody)
# chain 1: not shown
# chain 2: DVVMTQSPSSLSASVGDRVTITCQASQIISSRSAWYQQKPGQPPKLLIYQASKLASGVPSRFSGSGSGTDFTLTISSLQPEDFATYYCQCTYIDSNFGAFGGGTKLTVLGGGGGSGGGGSGGGGSGGGGSEVQLVESGGGLVQPGGSLRLSCAASGFSFSSSYWICWVRQAPGKGLEWVGCVFTGDGTTYYASWAKGRFTISRDNSKNTVYLQMNSLRAEDTATYFCARPVSVYYYGMDLWGQGTLVTVSSGGGGSGGGGSQVQLQESGPGLVKPSETLSLTCKVSGFSFSSGYDMCWIRQPPGKGLEWIGCVVAGSVDITYYASWAKGRVTISVDSSKNQFSLKLSSVTAADTAVYYCARKDAYSDAFNLWGQGTLVTVSSGGGSGGGSEVQLVESGGGLVQPGGSLRLSCAASGFSFSANYYPCWVRQAPGKCLEWIGCIYGGSSDITYDANWTKGRFTISRDNSKNTVYLQMNSLRAEDTAVYYCARSAWYSGWGGDLWGQGTLVTVSS
# Key:
# [1] = target: CD137 on transgenic NF-kB Jurkat reporter cells (Homo sapiens (Human), UniProt Q07011 24-255); assay: cell-based or functional assay
# [2] = target: T2, human PD-L1 expressed on cells (CHO-PD-L1, HCC1954, HCC827) (human, UniProt Q9NZQ7 19-290); assay: flow cytometry with human SA, inhibition of PD-1 binding to HCC827 cells
# T2 construct: whole, on cells; also called hPD-L1; PD-L1 expressing cells
# [3] = target: T2, human PD-L1 expressed on cells …; assay: flow cytometry with human SA, inhibition of PD-1 binding to HCC1954 cells
# [4] = target: T3, CD3e on Jurkat PD-1 NFAT reporter T cells or on T cells of human PBMCs (human, UniProt P07766 23-207); assay: cell-based or functional assay
# [5] = target: T1, recombinant human IL-23R (custom-made …); assay: SPR, immobilised IL-23R
# [6] = target: T4, recombinant human Her2 ECD (SinoBiological, cat. 10004-HCCH) (human, UniProt P04626 23-652); assay: SPR, immobilised Her2 ECD
# T4 construct: extracellular domain; bought protein
# [7] = target: T5, Fc-tagged human PD-L1 extracellular domain (SinoBiological, cat. 10084-H02H) (human, UniProt Q9NZQ7 19-238); assay: SPR, captured Fc-PD-L1 ECD
# T5 construct: extracellular domain; also called hPD-L1; not shown: Fc tag of the bought protein
# [8] = target: T6, human serum albumin (human, UniProt P02768 25-609); assay: SPR, immobilised HSA, pH 5.5
# T6 construct: also called HSA; human SA
# [9] = target: T7, mouse serum albumin (mouse, UniProt P07724 25-608); assay: SPR, immobilised MSA, pH 5.5
# T7 construct: also called MSA; mouse SA
# [10] = target: T8, recombinant human CD3E ECD (SinoBiological, cat. 10977-H08H) (human, UniProt P07766 23-126); assay: SPR, immobilised CD3e ECD, two-state model
# T8 construct: extracellular domain; bought protein; also called CD3s
# [11] = target: T8, recombinant human CD3E ECD …; assay: SPR, immobilised CD3e ECD, two-state model (ka1)
# [12] = target: T8, recombinant human CD3E ECD …; assay: SPR, immobilised CD3e ECD, two-state model (kd1)
# [13] = target: T3, CD3e on Jurkat PD-1 NFAT reporter T …; assay: cell-based or functional assay; remark: listed apart in the source
# [14] = target: T2, human PD-L1 expressed on cells …; assay: flow cytometry, inhibition of biotinylated PD-1 binding to HCC827 cells
# [15] = target: T2, human PD-L1 expressed on cells …; assay: flow cytometry, inhibition of biotinylated PD-1 binding to HCC1954 cells
# [16] = target: T5, Fc-tagged human PD-L1 extracellular …; assay: SPR, captured Fc-PD-L1 ECD, kinetic
# T7 sequence (P07724 25-608 limits assumed): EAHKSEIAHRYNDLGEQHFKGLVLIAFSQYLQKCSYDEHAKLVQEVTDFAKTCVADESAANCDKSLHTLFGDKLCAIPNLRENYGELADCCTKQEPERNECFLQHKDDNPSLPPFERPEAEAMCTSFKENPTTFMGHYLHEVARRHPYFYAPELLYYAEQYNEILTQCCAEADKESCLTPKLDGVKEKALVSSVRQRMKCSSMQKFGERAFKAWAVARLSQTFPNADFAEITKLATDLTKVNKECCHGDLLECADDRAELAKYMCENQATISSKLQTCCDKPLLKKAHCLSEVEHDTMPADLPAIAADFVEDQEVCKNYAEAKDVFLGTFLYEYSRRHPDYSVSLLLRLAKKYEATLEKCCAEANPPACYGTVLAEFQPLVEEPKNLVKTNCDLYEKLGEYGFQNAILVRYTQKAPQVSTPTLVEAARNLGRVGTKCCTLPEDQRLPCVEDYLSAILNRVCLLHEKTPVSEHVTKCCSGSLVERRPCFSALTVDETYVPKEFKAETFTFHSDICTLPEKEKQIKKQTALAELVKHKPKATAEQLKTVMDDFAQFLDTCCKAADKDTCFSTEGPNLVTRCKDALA
# T8 sequence (P07766 23-126): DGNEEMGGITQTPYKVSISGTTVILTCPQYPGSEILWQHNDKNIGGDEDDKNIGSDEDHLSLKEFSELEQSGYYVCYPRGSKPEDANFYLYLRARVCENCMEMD
Binder,"EC50, NFkB reporter gene assay, HCC1954 cells [1] [nM]",IC50 [2] [µg/mL],IC50 [3] [µg/mL],"IC50, NFAT reporter, HCC1954 cells [4] [nM]","rel. max. activation vs PRO1497, NFAT reporter, HCC1954 cells [4] [%]",Kd [5] [nM],koff [5] [s⁻¹],kon [5] [M⁻¹ s⁻¹],KD1 [10] [nM],Kd [10] [nM],kd2 [10] [s⁻¹],kon [11] [M⁻¹ s⁻¹],koff [12] [s⁻¹],IC50 [14] [µg/mL],IC50 [15] [µg/mL],further results
B1,0.603,32.6,0.695,–,–,–,–,–,–,–,–,–,–,–,–,–
B2,–,–,–,2.71,53,0.868,0.000493,568000,15.7,7.95,0.00335,315000,0.00496,–,–,Kd [6]: 0.3 nM; koff [6]: 6.07e-05 s⁻¹; kon [6]: 202000 M⁻¹ s⁻¹; binding result [7]: no binding; Kd [8]: 0.501 nM; koff [8]: 0.000123 s⁻¹; kon [8]: 245000 M⁻¹ s⁻¹; Kd [9]: 11.5 nM; koff [9]: 0.0011 s⁻¹; kon [9]: 95800 M⁻¹ s⁻¹
B3,–,–,–,4.07,–,–,–,–,–,–,–,–,–,2.8,2.85,"fold weaker activation than PRO1454, NFAT reporter, HCC1954 cells [13]: 27 fold"
B4,–,–,–,172,71,0.563,0.000278,495000,29.6,19.5,0.00198,197000,0.00584,8.54,7.05,"fold weaker activation than PRO1497, NFAT reporter, HCC1954 cells [13]: 475 fold; binding result [6]: no binding (tested: 90 nM highest concentration); Kd [16]: 332 nM; koff [16]: 0.000379 s⁻¹; kon [16]: 1140 M⁻¹ s⁻¹"
B5,0.661,6.72,1.42,–,–,–,–,–,–,–,–,–,–,–,–,–
